The test system of this experiment is HES-1. In words: HES-1 / HES1 RT-PCR in primary AML blasts. The experiment is classed as cell-based, human. How it is done:
FIG. 15A-15D. EGFL7 binds and antagonizes NOTCH2 signaling. FIG. 15A. Co-IPs in Kasumi-1 cells using anti-EGFL7 antibody or normal rabbit IgG in Protein G Plus/Protein A agarose beads. Eluate was analyzed by immunoblotting for NOTCH1,-3, and EGFL7. FIG. 15B. Co-IPs with rabbit anti NOTCH1-3 antibody or normal rabbit IgG in Protein G Plus/Protein A agarose beads. FIG. 15C. Immunoblot for cleaved and total NOTCH2 in primary AML blasts stimulated in 0.25 μM rEGFL7. FIG. 15D. RT-PCR on primary AML blasts stimulated with 0.25 μM rEGFL7, *P<0.05.
FIG. 18A-18B. Parsatuzumab decreases blast growth and activation of NOTCH downstream signaling. FIG. 18A. […]
FIG. 23A-23E. […] (FIG. 23B) Total RNA was extracted for quantitative real time (qRT-PCR) analysis of HES1 mRNA with β-ACTIN as internal control. *p<0.05 vs un-stimulated control (Unstim). […] Total RNA was extracted for quantitative real time RT-PCR analysis of HES1 mRNA with β-ACTIN as internal control. *p<0.05, ***p<0.001 vs IgG.
Total RNA was extracted using Trizol reagent (Invitrogen, Carlsbad, Calif., USA). cDNA was synthesized using SuperScript III reagents (Invitrogen) according to the manufacturer's instruction. Quantitative Real-Time RT-PCR was performed using commercially available TaqMan Gene Expression Assay primers and the 7900HT Fast Real-Time PCR System (Applied Biosystems, Foster City, Calif., USA). […]

B1: Parsatuzumab: Anti-human EGFL7 therapeutic antibody (Parsatuzumab) obtained from Creative Biolabs; blocking monoclonal antibody (antibody, chains of the INN, looked up, V domains shown)
VH: EVQLVESGGGLVQPGGSLRLSCAASGYTFIDYYMNWVRQAPGKGLEWVGDINLDNSGTHYNQKFKGRFTISRDKSKNTAYLQMNSLRAEDTAVYYCAREGVYHDYDDYAMDYWGQGTLVTVSS
VL: DIQMTQSPSSLSASVGDRVTITCRTSQSLVHINAITYLHWYQQKPGKAPKLLIYRVSNRFSGVPSRFSGSGSGTDFTLTISSLQPEDFATYYCGQSTHVPLTFGQGTKVEIK
For B1, the “expression of HES1” value (100 μg/ml, 2 and 10 hrs post treatment, vs IgG) is “concomitant increases”. Further, under “4 and 24 hours after addition, vs IGg1 controls”, the “HES-1 mRNA expression” value was “significant increases in HES-1 expression”.

Source of the values: patent publication US11702469B2, “Recombinant EGFL7, EGFL7 antibodies, and uses thereof” (Ohio State Innovation Foundation, priority 2017, dated 2023).
